Like-named read-outs stand apart in the source and are kept apart here. No end group written: not given here.

Assay [1] has as its target full-length SlyD from Thermus thermophilus (TtSlyDFL) (Thermus thermophilus).
The target is the same in assay [2]. This is another data set of the same source.

For orientation: Kd means the free concentration of one partner at which half of the binding sites on the other are occupied at equilibrium, for simple one-to-one binding. Low values mean a tighter complex, high ones a looser complex. What is called stoichiometry N is the number of molecules, sites or subunits per partner or assembly. In assay [1], VGSNSYPHKYNNYEG-NH2 [T1 peptide] came in with a Kd of 158 µM, a dH of -14.6 kcal/mol and a stoichiometry N of 1.13.
The corresponding values for SGLVPRGS-NH2 [SlpA linker peptide] are 133 µM, -0.4 kcal/mol and 1.44.
Turning to WNPKMKP-NH2 [S2-short8 peptide], in assay [2], the Kd came out at 163 µM, the dH is -5.1 kcal/mol and the stoichiometry N is 1.29.

Source of the values: article PMC5034536, “Molecular insights into substrate recognition and catalytic mechanism of the chaperone and FKBP peptidyl-prolyl isomerase SlyD” (BMC Biology, 2016).
